Experimental data reported in article PMC9482650, “Quantitative fragmentomics allow affinity mapping of interactomes” (Nature Communications, 2022).

How the values were obtained:
Assay in all cases: holdup assay
Design in all cases: key: below the threshold = too weak to quantify, mostly under pKd 3.1 to 4
[1] = molecular target: T1, GRIP1_3, Q9Y3R0
T1 sequence (Q9Y3R0 247-346, limits assumed, looked up): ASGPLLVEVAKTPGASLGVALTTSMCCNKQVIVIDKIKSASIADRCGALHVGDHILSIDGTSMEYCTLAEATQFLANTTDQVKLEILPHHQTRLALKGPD

[2] = molecular target: PICK1, Q9NRD5
[3] = molecular target: PARD3_3, Q8TEW0
[4] = molecular target: Inadl_5, Q8NI35
[5] = molecular target: IL16_1, Q14005
[6] = molecular target: T2, NHERF3_1, Q5T2W1
T2 sequence (Q5T2W1 4-100, limits assumed, looked up): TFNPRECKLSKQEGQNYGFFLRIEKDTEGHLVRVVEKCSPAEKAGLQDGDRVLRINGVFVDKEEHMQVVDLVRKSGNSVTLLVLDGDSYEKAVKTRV

[7] = molecular target: T3, NHERF3_4, Q5T2W1
T3 sequence (Q5T2W1 373-468, limits assumed, looked up): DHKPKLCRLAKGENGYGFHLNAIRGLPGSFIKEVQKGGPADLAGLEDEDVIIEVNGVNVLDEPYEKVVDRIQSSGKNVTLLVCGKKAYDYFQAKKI

[8] = molecular target: T4, PDZRN3_1, Q9UPQ7
T4 sequence (Q9UPQ7 244-349, limits assumed, looked up): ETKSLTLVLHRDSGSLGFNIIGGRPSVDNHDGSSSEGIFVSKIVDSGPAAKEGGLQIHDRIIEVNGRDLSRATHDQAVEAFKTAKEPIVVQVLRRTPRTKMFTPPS

[9] = molecular target: MAGI1_2, Q96QZ7
[10] = molecular target: ARHGEF12, Q9NZN5-2
[11] = molecular target: T5, RHPN1, Q8TCX5
T5 sequence (Q8TCX5 508-602, limits assumed, looked up): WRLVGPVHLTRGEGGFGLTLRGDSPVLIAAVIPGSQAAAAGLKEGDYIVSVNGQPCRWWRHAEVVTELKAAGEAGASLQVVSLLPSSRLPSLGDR

[12] = molecular target: Inadl_2, Q8NI35
[13] = molecular target: T6, LRRC7, Q96NW7
T6 sequence (Q96NW7 1440-1537, limits assumed, looked up): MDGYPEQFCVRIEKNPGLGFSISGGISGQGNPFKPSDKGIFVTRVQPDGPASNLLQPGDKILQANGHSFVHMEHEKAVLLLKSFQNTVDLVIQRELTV

[14] = molecular target: MAST2, Q6P0Q8
[15] = molecular target: T7, HTRA4, P83105
T7 sequence (P83105 378-476, limits assumed, looked up): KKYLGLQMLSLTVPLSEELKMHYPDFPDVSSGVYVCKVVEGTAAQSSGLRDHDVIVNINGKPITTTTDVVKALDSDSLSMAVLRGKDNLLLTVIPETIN

[16] = molecular target: T8, LIN7A, O14910
T8 sequence (O14910 103-200, limits assumed, looked up): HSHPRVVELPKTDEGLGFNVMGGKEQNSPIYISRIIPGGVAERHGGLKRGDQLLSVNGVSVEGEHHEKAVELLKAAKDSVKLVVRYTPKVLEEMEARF

[17] = molecular target: GRIP2_4, Q9C0E4
[18] = molecular target: T9, RADIL, Q96JH8
T9 sequence (Q96JH8 971-1071, limits assumed, looked up): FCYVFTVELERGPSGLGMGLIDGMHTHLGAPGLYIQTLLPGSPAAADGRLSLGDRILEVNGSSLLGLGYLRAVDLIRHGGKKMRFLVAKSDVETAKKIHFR

[19] = molecular target: T10, DFNB31_1, Q9P202
T10 sequence (Q9P202 135-233, limits assumed, looked up): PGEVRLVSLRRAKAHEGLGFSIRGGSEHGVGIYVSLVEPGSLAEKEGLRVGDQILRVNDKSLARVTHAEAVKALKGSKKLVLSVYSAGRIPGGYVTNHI

[20] = molecular target: DLG1_2, Q12959
[21] = molecular target: LAP2, Q96RT1
[22] = molecular target: DLG4_1, P78352
[23] = molecular target: T11, MPP7, Q5T2T1
T11 sequence (Q5T2T1 134-230, limits assumed, looked up): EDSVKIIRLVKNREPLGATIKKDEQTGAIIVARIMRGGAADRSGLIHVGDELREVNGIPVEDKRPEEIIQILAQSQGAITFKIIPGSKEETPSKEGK

[24] = molecular target: T12, PCLO, Q9Y6V0
T12 sequence (Q9Y6V0 4491-4600, limits assumed, looked up): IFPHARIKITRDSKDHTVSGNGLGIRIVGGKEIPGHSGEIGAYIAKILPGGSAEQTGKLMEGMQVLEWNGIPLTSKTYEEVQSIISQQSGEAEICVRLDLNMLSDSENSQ

[25] = plain residues with an end cap or a label only (N-terminal biotin on a linker: ttds)
[26] = plain residues with an end cap or a label only (N-terminal biotin on a linker: ahx)
[27] = plain residues with an end cap or a label only (N-terminal biotin on a linker: none)

IL16_1, Q14005, sequence (Q14005 210-306): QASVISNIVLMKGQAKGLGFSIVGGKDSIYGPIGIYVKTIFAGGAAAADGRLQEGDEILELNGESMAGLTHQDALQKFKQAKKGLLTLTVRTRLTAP
GRIP2_4, Q9C0E4, sequence (Q9C0E4 446-548): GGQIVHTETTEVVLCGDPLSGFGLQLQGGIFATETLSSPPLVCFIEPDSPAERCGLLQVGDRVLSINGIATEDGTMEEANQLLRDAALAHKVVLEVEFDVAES
DLG4_1, P78352, sequence (P78352 62-152): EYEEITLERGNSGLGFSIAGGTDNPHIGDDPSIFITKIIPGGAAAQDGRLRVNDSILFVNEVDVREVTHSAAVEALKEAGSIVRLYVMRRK
Inadl_2, Q8NI35, sequence (Q8NI35 238-335): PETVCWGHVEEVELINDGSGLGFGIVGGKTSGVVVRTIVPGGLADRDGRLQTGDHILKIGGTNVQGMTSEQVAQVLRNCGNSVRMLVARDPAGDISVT
DLG1_2, Q12959, sequence (Q12959 314-412): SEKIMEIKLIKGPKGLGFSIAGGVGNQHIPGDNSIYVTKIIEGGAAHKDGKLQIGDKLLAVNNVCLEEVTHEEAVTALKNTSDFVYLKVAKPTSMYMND
ARHGEF12, Q9NZN5-2, sequence (Q9NZN5 other isoform, or with tags, fused parts or gaps): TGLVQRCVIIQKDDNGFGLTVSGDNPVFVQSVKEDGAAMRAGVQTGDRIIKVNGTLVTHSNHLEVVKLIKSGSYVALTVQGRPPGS
PICK1, Q9NRD5, sequence (Q9NRD5 17-115): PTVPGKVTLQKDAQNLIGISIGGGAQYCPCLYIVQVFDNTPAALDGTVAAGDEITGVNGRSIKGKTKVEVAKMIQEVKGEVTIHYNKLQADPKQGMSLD
PARD3_3, Q8TEW0, sequence (Q8TEW0 582-685): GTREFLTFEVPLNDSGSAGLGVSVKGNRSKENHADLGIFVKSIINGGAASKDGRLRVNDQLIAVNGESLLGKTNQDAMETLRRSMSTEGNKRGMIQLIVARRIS
MAGI1_2, Q96QZ7, sequence (Q96QZ7 456-580): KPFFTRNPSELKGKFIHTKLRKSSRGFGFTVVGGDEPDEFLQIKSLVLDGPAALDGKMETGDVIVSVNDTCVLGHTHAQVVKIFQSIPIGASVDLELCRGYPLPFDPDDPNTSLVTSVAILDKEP
LAP2, Q96RT1, sequence (Q96RT1 other isoform, or with tags, fused parts or gaps): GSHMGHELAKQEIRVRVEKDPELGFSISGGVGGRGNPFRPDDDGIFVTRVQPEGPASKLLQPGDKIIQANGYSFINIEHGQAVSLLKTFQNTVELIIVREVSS
MAST2, Q6P0Q8, sequence (Q6P0Q8 1099-1202): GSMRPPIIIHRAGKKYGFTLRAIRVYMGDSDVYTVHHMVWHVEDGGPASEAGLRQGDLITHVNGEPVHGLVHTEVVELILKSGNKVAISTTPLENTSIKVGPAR
Inadl_5, Q8NI35, sequence (Q8NI35 673-780): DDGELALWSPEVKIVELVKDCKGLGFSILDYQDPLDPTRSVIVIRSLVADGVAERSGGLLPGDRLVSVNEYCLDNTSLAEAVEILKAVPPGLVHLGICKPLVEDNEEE

## VDFPPKESSL [ACVR2A, P27037]
[1]; [25]
  pKd: below the threshold
[2]; [25]
  pKd: below the threshold
[3]; [25]
  pKd: below the threshold
[4]; [25]
  pKd: below the threshold
[5]; [25]
  pKd: below the threshold
[6]; [25]
  pKd: 4.22
[7]; [25]
  pKd: below the threshold
[8]; [25]
  pKd: 4.76
[9]; [25]
  pKd: below the threshold
[10]; [25]
  pKd: 4.2
[11]; [25]
  pKd: 3.97
[12]; [25]
  pKd: below the threshold
[13]; [25]
  pKd: below the threshold
[14]; [25]
  pKd: 5.05
[15]; [25]
  pKd: below the threshold
[16]; [25]
  pKd: 3.24
[17]; [25]
  pKd: below the threshold
[18]; [25]
  pKd: below the threshold
[19]; [25]
  pKd: below the threshold
[20]; [25]
  pKd: 4.24
[21]; [25]
  pKd: below the threshold
[22]; [25]
  pKd: below the threshold
[23]; [25]
  pKd: below the threshold
[24]; [25]
  pKd: below the threshold

## TVICWPGSLV [LNX2, Q8N448]
[1]; [26]
  pKd: below the threshold
[2]; [26]
  pKd: 3.75
[3]; [26]
  pKd: 3.68
[4]; [26]
  pKd: 3.51
[5]; [26]
  pKd: 4.54
[6]; [26]
  pKd: 4.73
[7]; [26]
  pKd: below the threshold
[8]; [26]
  pKd: 4.17
[9]; [26]
  pKd: 3.85
[10]; [26]
  pKd: below the threshold
[11]; [26]
  pKd: 3.85
[12]; [26]
  pKd: below the threshold
[13]; [26]
  pKd: below the threshold
[14]; [26]
  pKd: 4.1
[15]; [26]
  pKd: 4.45
[16]; [26]
  pKd: 4.35
[17]; [26]
  pKd: below the threshold
[18]; [26]
  pKd: 4.91
[19]; [26]
  pKd: below the threshold
[20]; [26]
  pKd: 4.27
[21]; [26]
  pKd: 3.86
[22]; [26]
  pKd: 4.44
[23]; [26]
  pKd: below the threshold
[24]; [26]
  pKd: below the threshold

## PVRVCEETSL [OTULIN, Q96BN8]
[1]; [25]
  pKd: below the threshold
[2]; [25]
  pKd: below the threshold
[3]; [25]
  pKd: 3.59
[4]; [25]
  pKd: 3.54
[5]; [25]
  pKd: 3.53
[6]; [25]
  pKd: 5.92
[7]; [25]
  pKd: below the threshold
[8]; [25]
  pKd: 4.99
[9]; [25]
  pKd: 4.01
[10]; [25]
  pKd: 4.8
[11]; [25]
  pKd: 4.93
[12]; [25]
  pKd: below the threshold
[13]; [25]
  pKd: below the threshold
[14]; [25]
  pKd: 5.28
[15]; [25]
  pKd: below the threshold
[16]; [25]
  pKd: 3.47
[17]; [25]
  pKd: 3.53
[18]; [25]
  pKd: below the threshold
[19]; [25]
  pKd: 4.42
[20]; [25]
  pKd: 4.56
[21]; [25]
  pKd: 4.18
[22]; [25]
  pKd: 4.11
[23]; [25]
  pKd: below the threshold
[24]; [25]
  pKd: below the threshold

## SGSRPSATVV [HPV73-E6, Q82005]
[1]; [25]
  pKd: below the threshold
[2]; [25]
  pKd: 3.63
[3]; [25]
  pKd: 3.76
[4]; [25]
  pKd: below the threshold
[5]; [25]
  pKd: below the threshold
[6]; [25]
  pKd: below the threshold
[7]; [25]
  pKd: 3.6
[8]; [25]
  pKd: below the threshold
[9]; [25]
  pKd: 4.15
[10]; [25]
  pKd: below the threshold
[11]; [25]
  pKd: below the threshold
[12]; [25]
  pKd: below the threshold
[13]; [25]
  pKd: 3.54
[14]; [25]
  pKd: 3.88
[15]; [25]
  pKd: 3.86
[16]; [25]
  pKd: below the threshold
[17]; [25]
  pKd: 3.55
[18]; [25]
  pKd: 4.27
[19]; [25]
  pKd: below the threshold
[20]; [25]
  pKd: 4.3
[21]; [25]
  pKd: below the threshold
[22]; [25]
  pKd: 3.97
[23]; [25]
  pKd: below the threshold
[24]; [25]
  pKd: below the threshold

## NLNSSRVPDLLV [SARS-CoV2-E, P0DTC4]
[1]; [27]
  pKd: below the threshold
[2]; [27]
  pKd: 3.67
[3]; [27]
  pKd: 3.82
[4]; [27]
  pKd: below the threshold
[5]; [27]
  pKd: below the threshold
[6]; [27]
  pKd: below the threshold
[7]; [27]
  pKd: below the threshold
[8]; [27]
  pKd: below the threshold
[9]; [27]
  pKd: below the threshold
[10]; [27]
  pKd: below the threshold
[11]; [27]
  pKd: below the threshold
[12]; [27]
  pKd: 3.47
[13]; [27]
  pKd: below the threshold
[14]; [27]
  pKd: below the threshold
[15]; [27]
  pKd: below the threshold
[16]; [27]
  pKd: below the threshold
[17]; [27]
  pKd: below the threshold
[18]; [27]
  pKd: 3.76
[19]; [27]
  pKd: below the threshold
[20]; [27]
  pKd: below the threshold
[21]; [27]
  pKd: below the threshold
[22]; [27]
  pKd: below the threshold
[23]; [27]
  pKd: below the threshold
[24]; [27]
  pKd: below the threshold

## PSASCAVTAA [PDLIM4, P50479;P50479-2]
[1]; [26]
  pKd: below the threshold
[2]; [26]
  pKd: below the threshold
[3]; [26]
  pKd: below the threshold
[4]; [26]
  pKd: below the threshold
[5]; [26]
  pKd: below the threshold
[6]; [26]
  pKd: below the threshold
[7]; [26]
  pKd: below the threshold
[8]; [26]
  pKd: below the threshold
[9]; [26]
  pKd: below the threshold
[10]; [26]
  pKd: below the threshold
[11]; [26]
  pKd: below the threshold
[12]; [26]
  pKd: below the threshold
[13]; [26]
  pKd: below the threshold
[14]; [26]
  pKd: below the threshold
[15]; [26]
  pKd: below the threshold
[16]; [26]
  pKd: below the threshold
[17]; [26]
  pKd: below the threshold
[18]; [26]
  pKd: below the threshold
[19]; [26]
  pKd: below the threshold
[20]; [26]
  pKd: below the threshold
[21]; [26]
  pKd: below the threshold
[22]; [26]
  pKd: below the threshold
[23]; [26]
  pKd: below the threshold
[24]; [26]
  pKd: below the threshold
